Numbering of substitutions follows the chain as printed.
Columns and labels:
[1] = target: T1, irrelevant His-tagged protein; test: indirect ELISA, purified native antibody at 1.95 ng/ml (1:512,000)
T1 construct: also called coating antigen C
Protocol: (§1) In the first (native) method, hybridoma cells (29E4B5) were cultured in low IgG culture medium in a roller bottle for 10 days. The supernatants were collected and protein A purified to obtain purified antibodies. The purified antibodies were analyzed for the ability to bind the FMC63-scFv protein and anti-CD19 CAR T cells using ELISA (Table 8).
(§2) A: Recombinant FMC63-scFv protein B: […] (FMC63-scFv linker peptide)(SEQ ID NO: 6) C: His-tagged protein D: Total human IgG The titer was the highest dilution where the Signal/Blank (S/B) ratio was ≥2.1. OD₄₅₀ for Blank was the average of two technical replicates. The starting concentration was 1 mg/ml, and the corresponding dilution ratio was calculated based on the actual concentration.

[2] = target: T2, Total human IgG (human); test: as above
T2 construct: also called coating antigen D
Protocol: as §1, §2

[3] = target: T3, FMC63-scFv linker peptide; test: as above
T3 construct: also called coating antigen B
T3 peptide: TGSTSGSGKPGSGEGSTKG
Protocol: as §1, §2

[4] = target: T4, Recombinant FMC63-scFv protein; test: as above
T4 construct: also called His-tagged single-chain variable fragment of mouse anti-human CD19 antibody FMC63; coating antigen A
Protocol: as §1, §2

[5] = target: T5, anti-CD19 CAR comprising the anti-CD19 scFv of SEQ ID NO:1; test: flow cytometry on anti-CD19 CAR T cells, dilution 1:50
T5 construct: also called anti-CD19 chimeric antigen receptor; anti-CD19 CAR T cells
From the text: (§3) The 29E4B5 antibodies produced using the first or the second method were compared with a reference anti-FMC63-scFv antibody (rec_mab3) for the ability to bind to the anti-CD19 CAR T cells using flow cytometry. Both methods produced 29E4B5 antibodies with higher affinity to the anti-CD19 cells than rec_mab3, showing higher CAR positive percentage even at 1:6,400 dilutions (Table 9).

[6] = target: T1, irrelevant His-tagged protein; test: indirect ELISA, purified native antibody at 500 ng/ml (1:2,000)
Protocol: as §1, §2

[7] = target: T2, Total human IgG; test: as above
Protocol: as §1, §2

[8] = target: T3, FMC63-scFv linker peptide; test: as above
Protocol: as §1, §2

[9] = target: T4, Recombinant FMC63-scFv protein; test: as above
Protocol: as §1, §2

[10] = target: T1, irrelevant His-tagged protein; test: indirect ELISA, purified native antibody at 7.81 ng/ml (1:128,000)
Protocol: as §1, §2

[11] = target: T2, Total human IgG; test: as above
Protocol: as §1, §2

[12] = target: T3, FMC63-scFv linker peptide; test: as above
Protocol: as §1, §2

[13] = target: T4, Recombinant FMC63-scFv protein; test: as above
Protocol: as §1, §2

[14] = target: T5, anti-CD19 CAR comprising the anti-CD19 …; test: flow cytometry on anti-CD19 CAR T cells, dilution 1:800
From the text: as §3

[15] = target: T1, irrelevant His-tagged protein; test: indirect ELISA, purified native antibody at 125 ng/ml (1:8,000)
Protocol: as §1, §2

[16] = target: T2, Total human IgG; test: as above
Protocol: as §1, §2

[17] = target: T3, FMC63-scFv linker peptide; test: as above
Protocol: as §1, §2

[18] = target: T4, Recombinant FMC63-scFv protein; test: as above
Protocol: as §1, §2

[19] = target: T1, irrelevant His-tagged protein; test: indirect ELISA, purified native antibody at 1,000 ng/ml (1:1,000)
Protocol: as §1, §2

[20] = target: T2, Total human IgG; test: as above
Protocol: as §1, §2

[21] = target: T3, FMC63-scFv linker peptide; test: as above
Protocol: as §1, §2

[22] = target: T4, Recombinant FMC63-scFv protein; test: as above
Protocol: as §1, §2

[23] = target: T1, irrelevant His-tagged protein; test: indirect ELISA, purified native antibody at 31.25 ng/ml (1:32,000)
Protocol: as §1, §2

[24] = target: T2, Total human IgG; test: as above
Protocol: as §1, §2

[25] = target: T3, FMC63-scFv linker peptide; test: as above
Protocol: as §1, §2

[26] = target: T4, Recombinant FMC63-scFv protein; test: as above
Protocol: as §1, §2

[27] = target: T5, anti-CD19 CAR comprising the anti-CD19 …; test: flow cytometry on anti-CD19 CAR T cells, dilution 1:200
From the text: as §3

[28] = target: T1, irrelevant His-tagged protein; test: indirect ELISA, purified native antibody at 250 ng/ml (1:4,000)
Protocol: as §1, §2

[29] = target: T2, Total human IgG; test: as above
Protocol: as §1, §2

[30] = target: T3, FMC63-scFv linker peptide; test: as above
Protocol: as §1, §2

[31] = target: T4, Recombinant FMC63-scFv protein; test: as above
Protocol: as §1, §2

[32] = target: T5, anti-CD19 CAR comprising the anti-CD19 …; test: flow cytometry on anti-CD19 CAR T cells, dilution 1:400
From the text: as §3

[33] = target: T5, anti-CD19 CAR comprising the anti-CD19 …; test: flow cytometry on anti-CD19 CAR T cells, dilution 1:1600
From the text: as §3

[34] = target: T1, irrelevant His-tagged protein; test: indirect ELISA, purified native antibody; highest dilution with Signal/Blank >=2.1
Protocol: as §1, §2

[35] = target: T2, Total human IgG; test: as above
Protocol: as §1, §2

[36] = target: T3, FMC63-scFv linker peptide; test: as above
Protocol: as §1, §2

[37] = target: T4, Recombinant FMC63-scFv protein; test: as above
Protocol: as §1, §2

[38] = target: T1, irrelevant His-tagged protein; test: indirect ELISA, purified native antibody at 3.90 ng/ml (1:256,000)
Protocol: as §1, §2

[39] = target: T2, Total human IgG; test: as above
Protocol: as §1, §2

[40] = target: T3, FMC63-scFv linker peptide; test: as above
Protocol: as §1, §2

[41] = target: T4, Recombinant FMC63-scFv protein; test: as above
Protocol: as §1, §2

[42] = target: T5, anti-CD19 CAR comprising the anti-CD19 …; test: flow cytometry on anti-CD19 CAR T cells, dilution 1:3200
From the text: as §3

[43] = target: T1, irrelevant His-tagged protein; test: indirect ELISA, purified native antibody at 62.50 ng/ml (1:16,000)
Protocol: as §1, §2

[44] = target: T2, Total human IgG; test: as above
Protocol: as §1, §2

[45] = target: T3, FMC63-scFv linker peptide; test: as above
Protocol: as §1, §2

[46] = target: T4, Recombinant FMC63-scFv protein; test: as above
Protocol: as §1, §2

[47] = target: T1, irrelevant His-tagged protein; test: indirect ELISA, purified native antibody at 15.62 ng/ml (1:64,000)
Protocol: as §1, §2

[48] = target: T2, Total human IgG; test: as above
Protocol: as §1, §2

[49] = target: T3, FMC63-scFv linker peptide; test: as above
Protocol: as §1, §2

[50] = target: T4, Recombinant FMC63-scFv protein; test: as above
Protocol: as §1, §2

[51] = target: T5, anti-CD19 CAR comprising the anti-CD19 …; test: flow cytometry on anti-CD19 CAR T cells, dilution 1:6400
From the text: as §3

[52] = target: T1, irrelevant His-tagged protein; test: indirect ELISA, subclone culture supernatant on coated antigen
[53] = target: T2, Total human IgG; test: as above
[54] = target: T3, FMC63-scFv linker peptide; test: as above
[55] = target: T4, Recombinant FMC63-scFv protein; test: as above
[56] = target: T5, anti-CD19 CAR comprising the anti-CD19 …; test: flow cytometry on anti-CD19 CAR T cells, dilution 1:100
From the text: as §3

T4 sequence (scFv, as listed by the source): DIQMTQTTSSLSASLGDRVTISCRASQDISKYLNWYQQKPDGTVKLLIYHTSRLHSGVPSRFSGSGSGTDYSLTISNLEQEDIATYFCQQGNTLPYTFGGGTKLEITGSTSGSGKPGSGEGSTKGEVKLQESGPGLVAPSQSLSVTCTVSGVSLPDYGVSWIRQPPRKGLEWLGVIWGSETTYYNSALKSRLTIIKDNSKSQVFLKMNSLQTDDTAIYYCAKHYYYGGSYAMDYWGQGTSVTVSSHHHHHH

B1: mouse anti-FMC63-scFv monoclonal antibody 29E4B5 (antibody, mouse IgG1, kappa, V domains shown)
VH: EVKLLQSGGGLVQPGGSLKLSCAASGIDFSRYWMSWVRRAPGKGLEWIGEINLDSSTKNYAPSLKDKFIISRDNAKNTLYLQMSKVRSEDTALYYCARNYVGMDYWGQGTSVTVSS
VL: DIVLTQSPASLAVSLGQRATISCRASKSVSSSDYTYMHWYQQKPGQPPKLLIYLASNLESGVPARFSGSGSGTDFTLNIHPVEEEDAATYYCQHSRELPPTFGGGTKLEIKR
notes: Hybridoma-derived antibody (culture supernatant, microscale purified, or protein A purified native lot), isotype IgG1, kappa; These are left out by the residue ranges; also called 29E4B5-1; 29E4B5-1 (Native)
OD450 [1]: 0.085 OD450 | OD450 [2]: 0.076 OD450 | OD450 [3]: 0.077 OD450 | OD450 [4]: 0.245 OD450 | % CAR+ [5]: 70.1% | OD450 [6]: 0.059 OD450 | OD450 [7]: 0.08 OD450 | OD450 [8]: 0.059 OD450 | OD450 [9]: 1.89 OD450 | OD450 [10]: 0.06 OD450 | OD450 [11]: 0.064 OD450 | OD450 [12]: 0.076 OD450 | OD450 [13]: 0.676 OD450 | % CAR+ [14]: 67.6% | OD450 [15]: 0.057 OD450 | OD450 [16]: 0.069 OD450 | OD450 [17]: 0.059 OD450 | OD450 [18]: 1.79 OD450 | OD450 [19]: 0.059 OD450 | OD450 [20]: 0.073 OD450 | OD450 [21]: 0.064 OD450 | OD450 [22]: 1.88 OD450 | OD450 [23]: 0.059 OD450 | OD450 [24]: 0.076 OD450 | OD450 [25]: 0.061 OD450 | OD450 [26]: 1.32 OD450 | % CAR+ [27]: 67.9% | OD450 [28]: 0.054 OD450 | OD450 [29]: 0.079 OD450 | OD450 [30]: 0.062 OD450 | OD450 [31]: 1.85 OD450 | % CAR+ [32]: 67.6% | % CAR+ [33]: 67.9% | Titer [34]: < 1000 dilution (1:x) | Titer [35]: < 1000 dilution (1:x) | Titer [36]: < 1000 dilution (1:x) | Titer [37]: 512000 dilution (1:x) | OD450 [38]: 0.084 OD450 | OD450 [39]: 0.073 OD450 | OD450 [40]: 0.068 OD450 | OD450 [41]: 0.407 OD450 | % CAR+ [42]: 62.9% | OD450 [43]: 0.051 OD450 | OD450 [44]: 0.071 OD450 | OD450 [45]: 0.075 OD450 | OD450 [46]: 1.71 OD450 | OD450 [47]: 0.088 OD450 | OD450 [48]: 0.067 OD450 | OD450 [49]: 0.067 OD450 | OD450 [50]: 0.983 OD450 | % CAR+ [51]: 60.5% | OD450 nm [52]: 0.201 OD450 | OD450 nm [53]: 0.178 OD450 | OD450 nm [54]: 0.087 OD450 | OD450 nm [55]: 1.5 OD450 | % CAR+ [56]: 69.2%

B2: reference anti-FMC63-scFv antibody (rec_mab3) (antibody, V domains shown)
VH: B1 VH with L5V, Q6E, I27F, R39Q, K58I, A61T, N99R, V101D, G102A
VL: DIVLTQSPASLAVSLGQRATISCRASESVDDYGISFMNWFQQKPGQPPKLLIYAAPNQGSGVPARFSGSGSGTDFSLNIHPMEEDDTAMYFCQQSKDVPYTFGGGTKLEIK
notes: also called control anti-FMC63-scFv antibody
% CAR+ [5]: 69.8% | % CAR+ [14]: 66.4% | % CAR+ [27]: 69.7% | % CAR+ [32]: 68.9% | % CAR+ [33]: 62.2% | % CAR+ [42]: 56.6% | % CAR+ [51]: 49.1% | % CAR+ [56]: 69.4%

B3: 29E4B5-1 (Recombinant) (antibody, V domains shown)
VH: B1 VH
VL: DIVLTQSPASLAVSLGQRATISCRASKSVSSSDYTYMHWYQQKPGQPPKLLIYLASNLESGVPARFSGSGSGTDFTLNIHPVEEEDAATYYCQHSRELPPTFGGGTKLEIK
notes: also called recombinant 29E4B5 antibody
% CAR+ [5]: 69.6% | % CAR+ [14]: 68% | % CAR+ [27]: 68.8% | % CAR+ [32]: 69.1% | % CAR+ [33]: 65.9% | % CAR+ [42]: 62.5% | % CAR+ [51]: 58% | % CAR+ [56]: 69.3%
